Test results from patent publication US20170101477A1 (Regeneron, published 2017).

Assays:
[1] = biological target: T1, Mycx2-hLepR(ecto)-GPI anchored, on HEK293/hLEPR-GPI cells (human, UniProt P48357 22-839, GPI anchor at the C-terminus); assay: FACS, 70 nM Ab, HEK293/hLEPR-GPI
T1 construct: also called HEK293/Mycx2-hLepR(ecto)-GPI; not shown: N-terminal myc-myc tag
T1 sequence: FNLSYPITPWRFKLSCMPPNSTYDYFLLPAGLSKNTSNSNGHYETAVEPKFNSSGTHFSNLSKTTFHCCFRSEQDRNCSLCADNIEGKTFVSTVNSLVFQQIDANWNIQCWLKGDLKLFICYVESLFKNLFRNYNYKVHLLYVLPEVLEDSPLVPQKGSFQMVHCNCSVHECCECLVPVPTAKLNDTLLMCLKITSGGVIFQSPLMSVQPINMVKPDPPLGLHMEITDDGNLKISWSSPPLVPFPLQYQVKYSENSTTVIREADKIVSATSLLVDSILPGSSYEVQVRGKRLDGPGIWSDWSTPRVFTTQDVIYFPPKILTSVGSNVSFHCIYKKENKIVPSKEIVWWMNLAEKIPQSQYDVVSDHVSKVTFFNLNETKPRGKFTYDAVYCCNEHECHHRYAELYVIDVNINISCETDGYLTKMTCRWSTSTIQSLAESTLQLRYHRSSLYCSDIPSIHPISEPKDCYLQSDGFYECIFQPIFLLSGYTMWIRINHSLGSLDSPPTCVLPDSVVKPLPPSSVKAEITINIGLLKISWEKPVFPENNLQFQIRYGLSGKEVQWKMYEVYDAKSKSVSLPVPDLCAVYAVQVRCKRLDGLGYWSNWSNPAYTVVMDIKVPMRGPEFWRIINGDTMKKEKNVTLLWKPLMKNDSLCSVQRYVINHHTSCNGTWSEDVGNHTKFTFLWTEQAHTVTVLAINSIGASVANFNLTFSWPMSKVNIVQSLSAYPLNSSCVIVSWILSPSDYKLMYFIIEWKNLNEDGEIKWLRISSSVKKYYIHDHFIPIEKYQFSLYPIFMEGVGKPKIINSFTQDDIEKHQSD

[2] = biological target: T2, full length human LEPR (amino acids 1-1165 of P48357, Isoform B), on cells (human, UniProt P48357 22-1165); assay: FACS, 70 nM Ab, HEK293/Stat3-luc/hLEPR-FL
T2 construct: also called hLEPR-FL; HEK293/Stat3-luc/hLEPR-FL
T2 sequence: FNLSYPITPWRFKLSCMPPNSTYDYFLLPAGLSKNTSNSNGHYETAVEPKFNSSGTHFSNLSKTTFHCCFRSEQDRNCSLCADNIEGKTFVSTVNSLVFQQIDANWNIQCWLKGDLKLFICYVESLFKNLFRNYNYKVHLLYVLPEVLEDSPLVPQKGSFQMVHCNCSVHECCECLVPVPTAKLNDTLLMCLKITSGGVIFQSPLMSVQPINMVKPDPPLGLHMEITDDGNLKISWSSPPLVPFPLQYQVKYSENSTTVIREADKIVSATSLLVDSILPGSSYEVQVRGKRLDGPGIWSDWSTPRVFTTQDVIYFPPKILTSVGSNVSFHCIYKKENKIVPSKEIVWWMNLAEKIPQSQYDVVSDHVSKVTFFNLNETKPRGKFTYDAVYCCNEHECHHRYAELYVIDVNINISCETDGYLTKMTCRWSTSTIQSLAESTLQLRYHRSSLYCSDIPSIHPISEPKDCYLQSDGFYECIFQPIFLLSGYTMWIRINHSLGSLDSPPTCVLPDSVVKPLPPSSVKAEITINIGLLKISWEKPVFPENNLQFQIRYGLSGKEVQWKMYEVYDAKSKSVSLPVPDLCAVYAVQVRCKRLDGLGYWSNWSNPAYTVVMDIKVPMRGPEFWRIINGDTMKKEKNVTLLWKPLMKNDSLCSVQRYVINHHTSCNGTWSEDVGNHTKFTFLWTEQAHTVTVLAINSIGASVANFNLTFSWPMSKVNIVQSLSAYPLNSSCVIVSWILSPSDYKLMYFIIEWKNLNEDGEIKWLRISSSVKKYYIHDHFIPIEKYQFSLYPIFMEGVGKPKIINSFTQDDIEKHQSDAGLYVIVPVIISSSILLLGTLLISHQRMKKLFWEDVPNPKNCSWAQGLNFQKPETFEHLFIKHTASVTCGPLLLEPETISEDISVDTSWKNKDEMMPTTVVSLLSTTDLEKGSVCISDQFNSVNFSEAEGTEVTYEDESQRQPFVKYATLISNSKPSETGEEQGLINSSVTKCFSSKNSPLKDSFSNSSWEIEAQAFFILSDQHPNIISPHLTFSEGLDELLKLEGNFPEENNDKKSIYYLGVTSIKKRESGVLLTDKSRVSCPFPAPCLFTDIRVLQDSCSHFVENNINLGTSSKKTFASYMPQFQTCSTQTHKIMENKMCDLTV

[3] = biological target: T1, Mycx2-hLepR(ecto)-GPI anchored, on …; assay: FACS, 10 nM Ab, HEK293/hLEPR-GPI, 1 uM Leptin
Protocol: (§1) For the FACS analysis, HEK293 parental cells and HEK293/hLEPR-GPI cells were dissociated and plated onto 96-well v-bottom plates at 5×10⁵ cells/well in PBS containing 2% FBS (FACS buffer). […] Cells were subsequently fixed using BD CytoFix™ (Becton Dickinson, #554655), filtered, and analyzed on a HyperCyt Flow Cytometer (Beckman Coulter). Unstained and secondary antibody alone controls were also tested for all cell lines. The results were analyzed using ForeCyt (IntelliCyt) and FlowJo version 10 software to determine the geometric means of fluorescence for viable cells. The geometric mean of fluorescence for each sample was then normalized to the geometric mean of unstained cells to obtain relative binding per condition referred to as “binding ratios”, and these binding ratios were recorded for each antibody tested.

[4] = biological target: T1, Mycx2-hLepR(ecto)-GPI anchored, on …; assay: FACS, 10 nM Ab, HEK293/hLEPR-GPI, no added Leptin
Protocol: as §1

[5] = biological target: T3, human LEPR extracellular domain expressed with a C-terminal myc-myc-hexahistidine tag (hLEPR.mmh) (human, UniProt P48357 22-839); assay: SPR, mAb over preformed hLEPR-MMH:human Leptin complex
T3 construct: also called human LEPR-MMH; monomeric human LEPR
Protocol: The entire study was performed in 10 mM HEPES pH 7.4, 150 mM NaCl, 3 mM EDTA, and 0.05% v/v Surfactant Tween-20 (HBS-ET running buffer) at 25° C.

[6] = biological target: T4, human LEPR CRH1 (D1,D2,D3)-MMH (human, UniProt P48357 22-427); assay: Luminex, myc-captured LEPR protein
T4 construct: domain: CRH1-Ig (D1,D2,D3); Limits on human LEPR cannot be told from the printed numbers; also called CRH1-Ig (D1, D2, D3); not shown: C-terminal myc-myc hexahistidine tag (amino acids 279-306 of the construct)
T4 sequence (looked up): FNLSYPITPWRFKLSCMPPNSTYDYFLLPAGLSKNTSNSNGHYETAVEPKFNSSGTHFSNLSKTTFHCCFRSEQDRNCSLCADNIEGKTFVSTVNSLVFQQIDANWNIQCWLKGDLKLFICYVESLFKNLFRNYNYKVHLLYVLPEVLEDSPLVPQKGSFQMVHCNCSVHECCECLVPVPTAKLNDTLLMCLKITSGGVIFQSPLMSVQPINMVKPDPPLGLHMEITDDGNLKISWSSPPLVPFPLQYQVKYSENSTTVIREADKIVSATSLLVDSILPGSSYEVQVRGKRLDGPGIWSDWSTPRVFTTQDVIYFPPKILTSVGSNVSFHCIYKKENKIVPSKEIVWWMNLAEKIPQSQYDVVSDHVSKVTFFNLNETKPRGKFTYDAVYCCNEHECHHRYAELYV
Protocol: Aliquots of microspheres with immobilized anti-myc monoclonal antibodies, prepared as described above, were added individually to 1 mL of the each of these protein supernatants. The microspheres were gently mixed, incubated for two hours at 25° C., washed twice with 1 mL of DBPS, centrifuged to remove the supernatant and finally resuspended in 1 mL of DPBS buffer.
From this mixed pool, 75 μL of microspheres were plated per well on a 96 well filter plate (Millipore, Cat. No: MSBVN1250) and mixed with 25 μL of individual anti-human LEPR monoclonal antibodies (0.5 or 5 μg/mL), incubated for two hours at 25° C. and then washed twice with 200 μL of DPBS with 0.05% Tween 20 (washing buffer). […] The Median Fluorescence intensity (MFI) of the microspheres was measured in a Luminex Analyzer.

B1: H4H16679P2 (antibody, human IgG4, V domains shown)
VH: QVQLVESGGGVVQPGRSLRLSCTASGFTFSSYAMYWVRQAPGKGLEWVSVIYYDGSYKYYADSVKGRFTISRDNSKNTLYLQMDSLRAEDTAVYYCASYNWNYWYFDFWGRGTLVTVSS
VL: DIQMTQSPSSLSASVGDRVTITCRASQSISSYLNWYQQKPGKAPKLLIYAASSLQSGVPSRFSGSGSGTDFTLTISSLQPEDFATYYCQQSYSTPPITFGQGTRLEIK
notes: human IgG4 Fc; Classed as agonist
Binding Ratio [1]: 1080 fold | Binding Ratio [2]: 51 fold | Binding Ratio [3]: 2220 fold | Binding Ratio [4]: 2060 fold | 200 nM mAb Bound (RU) [5]: 90 RU

B2: H4H17321P2 (antibody, human IgG4, V domains shown)
VH: QVQLVESGGGVVQPGRSLRLSCEASGFSSSDNAMYWVRQAPGKGLEWVSVIYHDGSYKYYEDSVKGRFTIARDNSKNTLYLQMNSLRAEDTAVYYCARYNWNHWYFDVWGRGTLVTVSS
VL: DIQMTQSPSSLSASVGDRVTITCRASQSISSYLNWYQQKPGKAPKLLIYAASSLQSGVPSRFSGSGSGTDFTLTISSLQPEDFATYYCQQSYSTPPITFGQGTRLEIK
notes: as for B1
Binding Ratio [1]: 1130 fold | Binding Ratio [2]: 46 fold

B3: H4H18449P2 (antibody, human IgG4, V domains shown)
VH: EVQLVESGGGLVQPGGSLRLSCVASGFTFNKYDMHWVRQTTGKGLEWVSGIDTDGDTYYPGSVKGRFTISRENAENSLYLQMNGLRVGDTAVYYCARWPWSGFYGAFDIWGQGTMVTVSS
VL: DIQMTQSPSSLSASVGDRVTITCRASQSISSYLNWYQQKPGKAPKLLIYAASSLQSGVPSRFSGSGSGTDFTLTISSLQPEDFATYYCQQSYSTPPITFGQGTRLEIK
notes: human IgG4 Fc; summary lists 74/66
Binding Ratio [3]: 3110 fold | Binding Ratio [4]: 3370 fold

B4: H4H16650P2 (antibody, human IgG4, V domains shown)
VH: QVQLVESGGGVVQPGKSLRLSCVASGFTFSSDAMYWVRQAPGKGLEWVAVIYYDGNYQYYEDSVKGRFTISRDNSQNTLDLQMNSLRVDDTAVYFCARLNWDYWYLDLWGRGTLVTVSS
VL: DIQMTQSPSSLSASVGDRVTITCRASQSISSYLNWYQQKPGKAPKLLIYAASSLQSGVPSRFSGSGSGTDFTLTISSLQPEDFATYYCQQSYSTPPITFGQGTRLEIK
notes: H4H prefix means human IgG4 Fc; Classed as agonist
Binding Ratio [1]: 707 fold | Binding Ratio [2]: 42 fold | Binding Ratio [3]: 3120 fold | Binding Ratio [4]: 2420 fold | 200 nM mAb Bound (RU) [5]: 81 RU

B5: H4H18438P2 (antibody, human IgG4, V domains shown)
VH: QVQLVESGGGVVQPGRSLRLSCAASGFSFNTYGMHWVRQAPGKGLEWVTIIWYDGSIKYYADSVKGRFTISRDNSKNTLYLQMNSLRAEDTAVYYCARGGYSGYLYFDYWGQGTLVTVSS
VL: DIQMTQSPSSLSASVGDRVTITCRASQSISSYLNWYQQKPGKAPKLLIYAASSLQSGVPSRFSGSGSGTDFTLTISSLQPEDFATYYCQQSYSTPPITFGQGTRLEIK
notes: human IgG4 Fc; Classed as potentiator
Binding Ratio [3]: 2410 fold | Binding Ratio [4]: 1490 fold

B6: H4H18417P2 (antibody, human IgG4, V domains shown)
VH: QVQLVESGGGVVQPGRSLRLSCAASGFTFSTYGMHWVRQAPGKGLEWVSVISYDESNKYYADSVKGRFTISRDNSKNALYLQMNSLRNEDTAVYYCARDRPFGLVTGWFDPWGQGTLVTVSS
VL: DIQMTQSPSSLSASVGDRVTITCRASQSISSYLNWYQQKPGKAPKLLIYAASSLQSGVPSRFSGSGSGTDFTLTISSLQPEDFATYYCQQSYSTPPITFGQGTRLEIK
notes: as for B5
Binding Ratio [3]: 2600 fold | Binding Ratio [4]: 1840 fold

B7: H4H17319P2 (antibody, human IgG4, V domains shown)
VH: QVQLVESGGSVVQPGRSLRLSCAASGFTFSTYAMYWVRQTPGKGLEWVAVLYSDGSNKYYIDSVKGRFTISRDTSTNTLYLQMSSLRADDSALYYCARLNWDYWYFDLWGRGTLVTVSS
VL: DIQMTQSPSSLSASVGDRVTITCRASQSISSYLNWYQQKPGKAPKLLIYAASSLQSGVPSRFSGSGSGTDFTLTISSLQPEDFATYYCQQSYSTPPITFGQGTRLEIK
notes: as for B1
Binding Ratio [1]: 1130 fold | Binding Ratio [2]: 47 fold | 200 nM mAb Bound (RU) [5]: 92 RU

B8: H4H18446P2 (antibody, human IgG4, V domains shown)
VH: EVQLVESGGGLVQPGGSLRLSCAASGFTFSNYGMTWVRQAPGKGLEWVSAITGGGGSTYYSNSVKGRFTISRDNSKNTVYLRMNSVRAEDTAVYYCAKYKWNFVDDWGQGTTVTVSS
VL: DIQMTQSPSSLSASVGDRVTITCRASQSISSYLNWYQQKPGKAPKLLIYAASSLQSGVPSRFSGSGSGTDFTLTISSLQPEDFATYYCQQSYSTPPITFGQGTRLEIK
notes: human IgG4 Fc
Luminex MFI [6]: 205 MFI

B9: H4H18445P2 (antibody, human IgG4, V domains shown)
VH: QVQLQESGPGLVKPSQTLSLTCTVSGGSISSGGDYWSWIRQLPGKGLEWIGYIYYSGSAYYNPSLKSRGTISIDTSKNQFSLKLTSVTAADTAVYFCVKLRFLEWFLGGWFGPWGQGTLVTVSS
VL: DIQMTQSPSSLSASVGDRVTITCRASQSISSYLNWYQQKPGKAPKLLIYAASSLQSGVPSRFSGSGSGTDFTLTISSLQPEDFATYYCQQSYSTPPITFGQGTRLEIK
notes: human IgG4 Fc
Binding Ratio [3]: 2490 fold | Binding Ratio [4]: 2020 fold
